Measurements reported in the supplement of paper PMC11865577.

These sequences were tested on TO-N3-2 (biotin conjugate) (assay: pull-down binding Z-score (relative to library population); higher = stronger binding). Conditions: RNA library: Library-2.
Method in brief: (§1)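 Biotin-conjugated small molecule (100 pmol) on streptavidin beads was incubated with 1 μg of heat-folded Cy5- or Cy3-end-labelled RNA library in phosphate/NaCl/KCl buffer at 25 °C for 60 min. Following three washes, RNA was eluted with hot SDS and hybridised at 55.5 °C for 20 h to a DNA barcode microarray. The binding value is a Z-score computed from the library mean and standard deviation, after subtraction of beads without compound and averaging of barcoded replicate probes with the highest and lowest excluded.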

Sequence | pull-down binding Z-score
CUCAUGUAAACUAAAACAUGAU [hsa-mir-508] | -0.891
CUCAUUGUUGAAUGGAAUGAGAU [hsa-mir-3145] | 0.348
CUCCGGGUUGGGG [hsa-mir-1469] | -0.557
CUCCUAUUGAAAAUGAACAGGAG [hsa-mir-873] | -0.875
CUCCUCCGCUGCCGCCGGGAGAG [hsa-mir-4785] | 0.0312
CUCGCUGGGAGGUGUGCUAUCGUCUUCCCCGGGAG [hsa-mir-3689d-1] | 0.734
CUCGCUGGGAGGUGUGCUAUCGUCUUCCCUGGGAG [hsa-mir-3689d-2] | 0.541
CUCGGCCAUCCUCCGUCUGCCCAG [hsa-mir-935] | 1.16
CUCGGGAGGCUGAG [hsa-mir-4419a] | 0.147
CUCGGGUGGAUAAGUCUGAUCUGAG [hsa-mir-3663] | 0.26
CUCGUCUCUACAAAAAAUUGAGACAGG [hsa-mir-4512] | -0.632
CUCUAGACUCUAUUAUAGUUUCCUGAG [hsa-mir-558] | -0.545
CUCUCCUCCAGCUCAGCUGGUCAGGAGAG [hsa-mir-3160-1] | -0.0869
CUCUCCUGACCAGCUGAGCUGGAGGAGAG [hsa-mir-3160-2] | -1.08
CUCUCGUGUCCACUAGCAGGCAGGUUUUCUGACACAGG [hsa-mir-604] | 0.566
CUCUCUGUUGCUCUGAAGGAG [hsa-mir-346] | 0.295
CUCUGAUGUAAUUAGGU [hsa-mir-563] | -0.397
CUCUGCUGUGUAAAUAGUUCUGAGUAGU [hsa-mir-454] | 0.574
CUCUGGUCAGUUGGGAGUCUGAG [hsa-mir-143] | 0.949
CUCUGGUCUAUAAUGGGUUAAAUAGUAGAG [hsa-mir-609] | 0.131
CUCUGUAGUUUUCUUAUAGUG [hsa-mir-644a] | -0.669
CUCUUGAUAGCAGACAU [hsa-mir-4775] | 0.291
CUGAAAAUACAAAAUGGAAAAUUCCAG [hsa-mir-4494] | -0.365
CUGAACCCGUGGGUGAGGAGUGCAG [hsa-mir-4690] | 0.925
CUGAACUGGGCUGGGUUGAGCUGGGCUGGGCUGAGUUGAG [hsa-mir-4538] | 2.71

Sequence | pull-down binding Z-score
CUGACCCGUUGUCAGACCUGGAAAAAGGGCCGGCUGUGGGCAGGGAGG [hsa-mir-4761] | 3.86
CUGAGAGGUUUACAUUUCUC [hsa-mir-128-1] | -0.0343
CUGAGAGUGUCAUGGUGGAGCCUCCG [hsa-mir-4784] | 1.55
CUGAGCGGCUCCAUCCCCCGGCCUGCUCAU [hsa-mir-6729] | 1.81
CUGAGCUGGGUACUGCCUGUUCAG [hsa-mir-589] | 0.0632
CUGAGGAAUUUGCUGGGAUAUGUCAG [hsa-mir-584] | 0.799
CUGAGGACAUGCAGUUUCAG [hsa-mir-7702] | -0.304
CUGAGGACUGAGGCUCACCUUG [hsa-mir-6772] | 0.813
CUGAGUAACUUGUGCUUAUAACUCAG [hsa-mir-5000] | -0.396
CUGAUUCAGAAAGAUCAUCGG [hsa-mir-127] | 0.226
CUGAUUGUCAUAUGUCGUUUGUGGGAUCCG [hsa-mir-340] | 0.334
CUGCAGAACAUUGCAG [hsa-mir-4310] | -1.08
CUGCAGAGACGAGGCCUGUAG [hsa-mir-5682] | 0.886
CUGCAGGAAAGGGAAGACCAAGGCUUGCUGUCUGUCCAGUCUGCCACCCUACCCUGU [hsa-mir-1231] | 1.54
CUGCAGGGACUGUGACACUGAA [hsa-mir-6816] | 1.22
CUGCAGUGAGCGAUCGGUGCUCUGGGG [hsa-mir-503] | 1.07
CUGCAGUGAGUAGGUCUGCCU [hsa-mir-4254] | 1.17
CUGCCAUUGAAAGUAAAGGCAA [hsa-mir-548ag-2] | 0.104
CUGCCCCUCGAAUCUGCUCCACGAUUUGGGCAG [hsa-mir-4436a] | -0.521
CUGCGGCCCUGAUGUCUCUACUCCAG [hsa-mir-4691] | 0.919
CUGCUCUCCCUGGCAGCAAG [hsa-mir-7109] | 0.6
CUGCUGAAUCUUCAGAAAGG [hsa-mir-3142] | 0.135
CUGCUGCCGAUUCUGCACCAG [hsa-mir-4756] | 0.461
CUGCUGCUGCUGCUGCUGCUGCUGCUGCUGCUGCUGCUGCUGCUGCUG [r(CUG)16] | 1.37
CUGCUUUUAAAGGUAAUGGCAA [hsa-mir-548ag-1] | -0.0105

Sequence | pull-down binding Z-score
CUGGAGUCGCCUGAGUCAUCACUCAG [hsa-mir-3065] | 0.525
CUGGCAUUUACGAGUCAGAGUUCUUACAGAGCUGC [hsa-mir-6514] | 1.48
CUGGCCAUCAGUGUGGGCUAAC [hsa-mir-6732] | 0.569
CUGGCUGGUCCAGCCCCUCAGAAG [hsa-mir-6796] | 1.47
CUGGCUUCUCUGGUUCUCCAGCUUACAG [hsa-mir-1269b] | 0.333
CUGGGAAGAGACCAUGAACAGGUUAGUCCAG [hsa-mir-4327] | -0.495
CUGGGAAGGGAGCUGUCCGGCUCCCCAG [hsa-mir-3155b] | -0.136
CUGGGAGGUGUGAUAUCGUGGUUCCUGG [hsa-mir-3689c] | 0.744
CUGGGAGGUGUGAUCCCGUGCUUCCUGG [hsa-mir-3689b] | 0.409
CUGGGAGGUGUGAUCCUGUGCUUCCUGG [hsa-mir-3689a] | 1.15
CUGGGGACUGUGUGGACUGGUAUCACCCAG [hsa-mir-2278] | 0.585
CUGGGGAGCCGGACAGCUCCCUUCCCAG [hsa-mir-3155a] | -0.0145
CUGGGGGAAGGCUCCAGACCCCAGCCU [hsa-mir-4267] | 1.37
CUGGGGUUGGAAUGUGACCCCA [hsa-mir-4654] | 0.687
CUGGGUCCUCUGUGCAGGGUCUUACCCAG [hsa-mir-7850] | 0.337
CUGGGUGGGACACUCAG [hsa-mir-4692] | 0.0278
CUGGGUUCGGCUGCUACCCCAAA [hsa-mir-6768] | 0.742
CUGGGUUCUUAGAGGCCUAAUCCUCUACAAACUCAGUUU [hsa-mir-4305] | 0.546
CUGGUAGUAUAAAACCCAG [hsa-mir-934] | -0.468
CUGGUGUUCUCACGCAAAGUGGCCAGGGUGUGGGAGACUAGA [hsa-mir-7161] | 1.34
CUGUAUGUCCUAACAGUGCUUGUAG [hsa-mir-4794] | 0.46
CUGUCCCCUGCCACUGGGUGACC [hsa-mir-7114] | 0.894
CUGUCCUGGACUGGGGUCAGACUGUGCCCCGAGGAGAAGCAG [hsa-mir-922] | 1.47
CUGUCUGUUGUAUAAAAGAAAAGAUCG [hsa-mir-517a] | 1

The sequences below were run on G-clamp-N3 (biotin conjugate) in the same assay as above. Conditions: RNA library: Library-1 (pre-miRNA loops + repeats).
Method in brief: as §1

Sequence | pull-down binding Z-score
CUCAUGUAAACUAAAACAUGAU [hsa-mir-508] | -1.91
CUCAUUGUUGAAUGGAAUGAGAU [hsa-mir-3145] | 2.58
CUCCGGGUUGGGG [hsa-mir-1469] | 0.177
CUCCUAUUGAAAAUGAACAGGAG [hsa-mir-873] | -0.315
CUCCUCCGCUGCCGCCGGGAGAG [hsa-mir-4785] | 0.0193
CUCGCUGGGAGGUGUGCUAUCGUCUUCCCCGGGAG [hsa-mir-3689d-1] | 0.293
CUCGCUGGGAGGUGUGCUAUCGUCUUCCCUGGGAG [hsa-mir-3689d-2] | -0.351
CUCGGCCAUCCUCCGUCUGCCCAG [hsa-mir-935] | -1.08
CUCGGGAGGCUGAG [hsa-mir-4419a] | 1.91
CUCGGGUGGAUAAGUCUGAUCUGAG [hsa-mir-3663] | 1.2
CUCGUCUCUACAAAAAAUUGAGACAGG [hsa-mir-4512] | -0.338
CUCUAGACUCUAUUAUAGUUUCCUGAG [hsa-mir-558] | -1.03
CUCUCCUCCAGCUCAGCUGGUCAGGAGAG [hsa-mir-3160-1] | -0.259
CUCUCCUGACCAGCUGAGCUGGAGGAGAG [hsa-mir-3160-2] | 1.35
CUCUCGUGUCCACUAGCAGGCAGGUUUUCUGACACAGG [hsa-mir-604] | 0.743
CUCUCUGUUGCUCUGAAGGAG [hsa-mir-346] | 1.39
CUCUGAUGUAAUUAGGU [hsa-mir-563] | -1.2
CUCUGCUGUGUAAAUAGUUCUGAGUAGU [hsa-mir-454] | -0.424
